For orientation: EC50 means the concentration giving half of the maximal effect. Low values mean an effect from little substance, high ones a need for much substance. A word on the Kd: it is the constant that tells how readily two partners part at equilibrium. Read a high Kd as weaker binding.

This note sets out measurements from patent US20240279318A1 (published 2024).

Read-outs that look alike come from different tables or passages of the source. Where only a bound is given, the exact number is not on record here.

The target in one experiment is AFP158 loaded T2 cells (human;, UniProt P61769 21-119). Briefly: flow cytometry.
Experiment [1] addresses AFP158/HLA-A*02:01 complex. Briefly: SPR.
The target of experiment [2] is A*02:03. Briefly: SPR.
Experiment [3] addresses A*02:05. Briefly: SPR. Background: Surface plasmon resonance follows binding to a sensor surface in real time, without labels.
The target in experiment [4] is A*02:02. Briefly: SPR.
Experiment [5] deals with A*02:06. Briefly: SPR.
For experiment [6], the target named is A*02:11. Briefly: SPR.
The target of experiment [7] is A*02:07. Briefly: SPR; low fitting confidence.
Experiment [8] concerns the target A*02:03. Briefly: SPR; low fitting confidence.
The target of experiment [9] is A*02:05. Briefly: SPR; low fitting confidence.
Experiment [10] addresses A*02:02. Briefly: SPR; low fitting confidence.
The target in experiment [11] is A*02:06. Briefly: SPR. The source holds these as a separate data set.
Experiment [12] addresses A*02:07. Briefly: SPR.
Experiment [13] concerns the target A*02:11. Briefly: SPR. This is another data set of the same source.
Experiment [14] addresses AFP158/HLA-A*02:01 complex. Briefly: SPR. The source holds these as a separate data set.
The target of experiment [15] is A*02:07. Briefly: SPR; low fitting confidence. This is another data set of the same source.
Experiment [16] addresses A*02:11. Briefly: SPR; low fitting confidence.
In experiment [17] the target is A*02:03. Briefly: SPR. The source holds these as a separate data set.
Experiment [18] addresses A*02:02. Briefly: SPR; low fitting confidence. This is another data set of the same source.
In experiment [19] the target is A*02:11. Briefly: SPR; low fitting confidence. The source holds these as a separate data set.

B1: AS179732 scFv-mIgG2aFc (Fc fusion)
chain: NFMLTQPPSMSGSPRQSVTISCTGSSSNIGGNYVNWYQHLPGTAPKLLIYDNSNRASGVPERFSGSKSGSSASLTITGLQAEDEGDYYCASWDDSLSGAVFGGGTHLTVLGGGGSGGGGSGGGGSEVQLVESGGGLVQPGGSLRLSCAASGFTFLNYAMSWVRQAPGKGLEWVSSNSGAGSTYYSDSVKGRFTISRDYAKNVVYLQLNSLKTEDTGMYYCAKGTNVGSWSSLHYWGQGTQVTVSS
In the experiment with AFP158 loaded T2 cells, B1 registered an EC50 of 1.15 nM. In addition, binding in experiment [1] was characterised by a dissociation constant (Kd) of 39.8 nM.

B2: AS179732 (Fc fusion)
chain: NFMLTQPPSMSGSPRQSVTISCTGSSSNIGGNYVNWYQHLPGTAPKLLIYDNSNRASGVPERFSGSKSGSSASLTITGLQAEDEGDYYCASWDDSLSGAVFGGGTHLTVLGGGGSGGGGSGGGGSEVQLVESGGGLVQPGGSLRLSCAASGFTFLNYAMSWVRQAPGKGLEWVSSNSGAGSTYYSDSVKGRFTISRDYAKNVVYLQLNSLKTEDTGMYYCAKGTNVGSWSSLHYWGQGTQVTVSS
Consider B2, for which the Kd with A*02:03 [2] is 2140 nM; with A*02:05 [3], 26200 nM; in the experiment with A*02:02 [4], 19000 nM; with A*02:06 [5], 191 nM; with A*02:11 [6], 656 nM; in the experiment with A*02:07 [7], more than 770 nM.

B3: AS179723 scFv-mIgG2aFc (Fc fusion)
chain: QAGLTQPPSMSGSPRQSVTISCTGSSNNIGGNYVNWYQHLPGTAPKLLIYDNKNRPSGVPEQISGSKSGSSASLTITGLQAEDEGDYYCASWDDSLSAVVFGGGTHLTVLGGGGSGGGGSGGGGSEVQLVESGGGLVQPGGSLRLSCAASGFTFLNYAMSWVRQAPGKGLEWVSSNSGAGSTYYSDSVKGRFTISRDYAKNVVYLQLNSLKTEDTGMYYCAKGTNVGSWSSLHYWGQGTQVTVSS
As for B3, the EC50 with AFP158 loaded T2 cells was determined as 1.48 nM. In addition, the Kd in [1] was determined as 80.4 nM.

B4: AS167830 sdAb-mIgG2aFc (Fc fusion)
chain: QVKLVESGGGSVQAGGSLRLSCAASRSSEYMNRRFCMGWFRQASGKEREGVAVVYIGGGRTYYADSVKGRFTISQDNAKNTLYLQMNNLKPEDTAMYYCTADVDPYESSWSRDLGYWGQGTQVTVSS
In the experiment with AFP158 loaded T2 cells, B4 registered an EC50 of 6.14 nM. This lies in the single-digit nanomolar range.

B5: AS170036 VL1VH1-56Y98Q108S (scFv)
scFv: QSALTQPRSVSGSPGQSVTISCAGTSSDVGSENYVSWYQQHPGKAPKLMIYQVNKRASGVPDRFSGSKSGNTASLTISGLQAEDEADYYCASYRSSDQNIVFGGGTKLTVLGGGGSGGGGSGGGGSEVQLVESGGGLVQPGGSLRLSCAASGFTFSSYAMSWVRQAPGKGLEWVSTINSGTYSPYYADSVKGRFTISRDNSKNTLYLQMNSLRAEDTAVYYCAKNFFDGSWFLSPPAMDYWGQGTLVTVSSHHHHHH
As for B5, the Kd was less than 18 nM with A*02:03 [8]; more than 1400 nM with A*02:05 [9]; more than 3100 nM with A*02:02 [10]; 89 nM with A*02:06 [11]; 1500 nM in the experiment with A*02:07 [12]; 290 nM with A*02:11 [13]. The same molecule gave a Kd in [14] of 7 nM.

B6: AS170036 VL1VH1 (scFv)
scFv: QSALTQPRSVSGSPGQSVTISCAGTSSDVGSENYVSWYQQHPGKAPKLMIYQVNKRASGVPDRFSGSKSGNTASLTISGLQAEDEADYYCASYRSSDHNIVFGGGTKLTVLGGGGSGGGGSGGGGSEVQLVESGGGLVQPGGSLRLSCAASGFTFSSYAMSWVRQAPGKGLEWVSTINSGTGSPYYADSVKGRFTISRDNSKNTLYLQMNSLRAEDTAVYYCAKNFFDGSWFLGPPAMDYWGQGTLVTVSSHHHHHH
Consider B6, for which the Kd is more than 2800 nM with A*02:03 [8]; more than 1500 nM with A*02:02 [10]; more than 18000 nM in the experiment with A*02:07 [15]; 5100 nM in the experiment with A*02:06 [11]; 220 nM with A*02:11 [13]; 710 nM in experiment [14].

B7: AS170036 VL1VH1-56N108A (scFv)
scFv: QSALTQPRSVSGSPGQSVTISCAGTSSDVGSENYVSWYQQHPGKAPKLMIYQVNKRASGVPDRFSGSKSGNTASLTISGLQAEDEADYYCASYRSSDHNIVFGGGTKLTVLGGGGSGGGGSGGGGSEVQLVESGGGLVQPGGSLRLSCAASGFTFSSYAMSWVRQAPGKGLEWVSTINSGTNSPYYADSVKGRFTISRDNSKNTLYLQMNSLRAEDTAVYYCAKNFFDGSWFLAPPAMDYWGQGTLVTVSSHHHHHH
With B7, the Kd in the experiment with A*02:05 [9] is more than 2000 nM; with A*02:02 [10], more than 3700 nM; in the experiment with A*02:07 [15] it was more than 9100 nM; with A*02:11 [16], more than 500 nM; in the experiment with A*02:03 [17], 6700 nM; with A*02:06 [11], 320 nM. Also, the dissociation constant (Kd) in experiment [14] turned out to be 27 nM.

B8: AS170036 VL1VH1-57M98Q (scFv)
scFv: QSALTQPRSVSGSPGQSVTISCAGTSSDVGSENYVSWYQQHPGKAPKLMIYQVNKRASGVPDRFSGSKSGNTASLTISGLQAEDEADYYCASYRSSDQNIVFGGGTKLTVLGGGGSGGGGSGGGGSEVQLVESGGGLVQPGGSLRLSCAASGFTFSSYAMSWVRQAPGKGLEWVSTINSGTGMPYYADSVKGRFTISRDNSKNTLYLQMNSLRAEDTAVYYCAKNFFDGSWFLGPPAMDYWGQGTLVTVSSHHHHHH
As for B8, the Kd was more than 43000 nM in the experiment with A*02:03 [8]; more than 910 nM in the experiment with A*02:05 [9]; more than 910 nM with A*02:02 [10]; more than 19000 nM with A*02:07 [15]; 570 nM with A*02:06 [11]; 360 nM in the experiment with A*02:11 [13]. The affinity in [14], expressed as Kd, was 46 nM.

B9: AS170036 VL1VH1-57K108S (scFv)
scFv: QSALTQPRSVSGSPGQSVTISCAGTSSDVGSENYVSWYQQHPGKAPKLMIYQVNKRASGVPDRFSGSKSGNTASLTISGLQAEDEADYYCASYRSSDHNIVFGGGTKLTVLGGGGSGGGGSGGGGSEVQLVESGGGLVQPGGSLRLSCAASGFTFSSYAMSWVRQAPGKGLEWVSTINSGTGKPYYADSVKGRFTISRDNSKNTLYLQMNSLRAEDTAVYYCAKNFFDGSWFLSPPAMDYWGQGTLVTVSSHHHHHH
On to B9, for which the Kd is less than 10 nM with A*02:03 [8]; more than 1400 nM with A*02:02 [10]; 500 nM with A*02:06 [11]; 10000 nM with A*02:07 [12]; 370 nM with A*02:11 [13]; 35 nM in experiment [14].

B10: AS170036 VL1VH1-98I108A (scFv)
scFv: QSALTQPRSVSGSPGQSVTISCAGTSSDVGSENYVSWYQQHPGKAPKLMIYQVNKRASGVPDRFSGSKSGNTASLTISGLQAEDEADYYCASYRSSDINIVFGGGTKLTVLGGGGSGGGGSGGGGSEVQLVESGGGLVQPGGSLRLSCAASGFTFSSYAMSWVRQAPGKGLEWVSTINSGTGSPYYADSVKGRFTISRDNSKNTLYLQMNSLRAEDTAVYYCAKNFFDGSWFLAPPAMDYWGQGTLVTVSSHHHHHH
Regarding B10, the Kd is more than 31000 nM in the experiment with A*02:03 [8]; more than 1100 nM with A*02:05 [9]; more than 530 nM with A*02:02 [10]; more than 16000 nM with A*02:07 [15]; more than 250 nM with A*02:11 [16]; 330 nM with A*02:06 [11]. Moreover, binding in experiment [14] was put at a Kd of 22 nM.

B11: AS170036 scFv-mIgG2aFc (Fc fusion)
chain: QLVLTQPSSVSGTPGQTVTISCAGTSSDVGSENYVSWYRQLPGTAPKLLIYQVNKRASGIADRFSGSKSGNTASMTISGLQSADEADYYCASYRSSDHNIVFGGGTHLTVLGGGGSGGGGSGGGGSAVQLVESGGGLVQPGGSLRLSCTASGFTFSSYAMSWVRQAPGKGLEWVSTINSGTGSPYYADSVKGRFTISRDNAKNTLYLQLNSLKTEDTAMYYCAKNFFDGSWFLGPPAMDYWGKGTLVTISS
With B11, the response with AFP158 loaded T2 cells was half-maximal at 4.35 nM (EC50). This molecule also registered a Kd in experiment [1] of 387 nM.

B12: AS167821 sdAb-mIgG2aFc (Fc fusion)
chain: QVRLVESGGGSVQAGGSLRLSCAASGRTYSTYCMGWFRQAPGKEREGVATIYIGSGRTYYVDSVKGRFTISQDNAKNTLYLQMNNLKPEDTAMYYCTADVDPYESSWSRGLGYWGQGTQVTVSS
Molecule B12 yielded an EC50 in the experiment with AFP158 loaded T2 cells of 3.63 nM.

B13: AS170036 VL1VH1 (Fc fusion)
chain: QSALTQPRSVSGSPGQSVTISCAGTSSDVGSENYVSWYQQHPGKAPKLMIYQVNKRASGVPDRFSGSKSGNTASLTISGLQAEDEADYYCASYRSSDHNIVFGGGTKLTVLGGGGSGGGGSGGGGSEVQLVESGGGLVQPGGSLRLSCAASGFTFSSYAMSWVRQAPGKGLEWVSTINSGTGSPYYADSVKGRFTISRDNSKNTLYLQMNSLRAEDTAVYYCAKNFFDGSWFLGPPAMDYWGQGTLVTVSS
Turning to B13, the Kd with A*02:06 [5] was 2770 nM; with A*02:02 [18], more than 71000 nM; with A*02:07 [7], more than 1200 nM; with A*02:11 [19] it was more than 14000 nM.

B14: AS148691 scFv-mIgG2aFc (Fc fusion)
chain: DIQMTQSPSSLSASVGDRVTITCRASQSVSSAVAWYQQKPGKAPKLLIYSASSLYSGVPSRFSGSRSGTDFTLTISSLQPEDFATYYCQQYYGAYLITFGQGTKVEIKGGGGSGGGGSGGGGSEVQLVESGGGLVQPGGSLRLSCAASGFNLYYSSIHWVRQAPGKGLEWVASIYSSYGSTSYADSVKGRFTISADTSKNTAYLQMNSLRAEDTAVYYCARVGPGYYGIDYWGQGTLVTVSS
In turn, B14 displayed an EC50 with AFP158 loaded T2 cells of 413 nM.
